Experimental data published in publication PMC8100141.

Key:
[1] = target: DENV3 NS5 wild type (Dengue virus serotype 3) (UniProt Q5UB51); test: fluorescence titration; conditions: all adenosines are 1,N6-ethenoadenosine; Fluorescence: 50 mM Tris-HCl pH 7.5, 100 mM NaCl, 1 mM MgCl2, 1 mM DTT, 10% glycerol; EMSA: 20 mM Tris pH 7.4, 150 mM NaCl, 2 mM MgCl2, 5% glycerol, room …
[2] = target: DENV3 NS5 wild type (Dengue virus serotype 3) (UniProt Q5UB51); test: fluorescence competition; conditions: Fluorescence: 50 mM Tris-HCl pH 7.5, 100 mM NaCl, 1 mM MgCl2, 1 mM DTT, 10% glycerol; EMSA: 20 mM Tris pH 7.4, 150 mM NaCl, 2 mM MgCl2, 5% glycerol, room …

DENV3 NS5 wild type (Dengue virus serotype 3), sequence (Q5UB51 2491-3390): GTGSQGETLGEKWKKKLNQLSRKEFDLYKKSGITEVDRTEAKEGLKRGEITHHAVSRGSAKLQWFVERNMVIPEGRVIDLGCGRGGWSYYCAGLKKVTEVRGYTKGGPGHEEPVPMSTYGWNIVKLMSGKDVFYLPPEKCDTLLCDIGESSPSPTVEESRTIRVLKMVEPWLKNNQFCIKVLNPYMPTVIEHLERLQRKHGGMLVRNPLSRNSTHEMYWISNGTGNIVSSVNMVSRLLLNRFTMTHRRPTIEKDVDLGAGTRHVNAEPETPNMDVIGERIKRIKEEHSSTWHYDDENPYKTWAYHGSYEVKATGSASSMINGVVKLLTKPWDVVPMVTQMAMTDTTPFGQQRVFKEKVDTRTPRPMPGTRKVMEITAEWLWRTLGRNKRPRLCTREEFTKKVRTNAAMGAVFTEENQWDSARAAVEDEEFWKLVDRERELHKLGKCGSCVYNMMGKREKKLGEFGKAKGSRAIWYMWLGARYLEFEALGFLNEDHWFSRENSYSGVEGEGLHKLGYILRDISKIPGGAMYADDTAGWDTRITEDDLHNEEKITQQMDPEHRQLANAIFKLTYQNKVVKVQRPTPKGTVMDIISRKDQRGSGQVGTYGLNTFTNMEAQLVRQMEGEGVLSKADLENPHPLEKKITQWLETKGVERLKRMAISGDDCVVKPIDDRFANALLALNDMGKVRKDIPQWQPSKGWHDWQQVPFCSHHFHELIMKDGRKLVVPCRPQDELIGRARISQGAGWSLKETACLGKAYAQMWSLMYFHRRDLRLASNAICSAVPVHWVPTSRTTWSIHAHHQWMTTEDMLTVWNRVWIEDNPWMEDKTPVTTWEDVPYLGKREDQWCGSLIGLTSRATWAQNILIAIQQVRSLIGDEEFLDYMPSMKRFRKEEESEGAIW

Row | Substance | Ka [1] | Ka [2]
1 | AAAAAAAAAAAAAAAAAAAA [εA(pεA)19] | 2.1e+06 M⁻¹ | –
2 | tRNA-SLADENV | – | 4.8e+06 M⁻¹
